Several values for one entry are separate records, joined by “and”; a condition that tells them apart may be missing. Equal entries are not always repeated.
Experiments:
[1] = molecular target: the molecule itself; experiment: […], sodium citrate 20 mM pH 4.0, […]
[2] = molecular target: the molecule itself; experiment: static light scattering + SEC

B1: Full-length Ovine PrP 23-234 (Ala-136, Arg-154, Gln-171 variant) (natural protein)
chain: not shown
notes: also called OvPrP; ARQ PrP
[1]
  stoichiometry N: 25 to 70 mer
[2]
  koff: 0.00403 s⁻¹ and 0.0038 s⁻¹ and 0.01 s⁻¹

From PMC5528842, “The mechanism of monomer transfer between two structurally distinct PrP oligomers” (PLoS ONE, 2017)
